Patent publication US20240287165A1 (GENERAL HOSPITAL, published 2024)

Tests used:
[1] = target: T1, full-length ApoE3ch (ApoE3 Christchurch R136S) mutant recombinant protein (His-tagged) (human, UniProt P02649 19-317); assay: ELISA, parental hybridoma clone
T1 construct: also called ApoE3ch full length protein; APOE3ch Mutant; not shown: histidine tag

[2] = target: T2, full-length wild type human ApoE3 recombinant protein (His-tagged) (human, UniProt P02649 19-317); assay: ELISA, parental hybridoma clone
T2 construct: Recombinant protein from Innovagen; also called ApoE3 WT full-length protein; APOE3 WT; not shown: histidine tag

[3] = target: T3, ApoEch peptide KLH-CTEELRVSLASHLRK-CONH2 (human, not fully specified; C-terminal amide (CONH2); printed with KLH on the added N-terminal cysteine); assay: ELISA, parental hybridoma clone
T3 construct: also called Mut peptide; mutant ApoE peptide
T3 peptide: CTEELRVSLASHLRK

[4] = target: T4, wild type ApoE peptide KLH-CTEELRVRLASHLRK-CONH2 (human, not fully specified; C-terminal amide (CONH2); printed with KLH on the added N-terminal cysteine); assay: ELISA, parental hybridoma clone
T4 construct: also called WT peptide; ApoE3 WT peptide
T4 peptide: CTEELRVRLASHLRK

[5] = target: T2, full-length wild type human ApoE3 …; assay: BLI (BLItz), mAb 1H4 on protein A biosensor, run with 285.7 nM ApoE3, global fit
Experimental: (§1) The binding affinity between ApoE3 and the monoclonal antibody 1H4 (mAb 1H4) was determined using the advanced kinetic module of the BLItz system (Blitz Pro, FB-609928, ver. 1.3.1.3). Briefly, a protein A biosensor was loaded with mAb 1H4 and both association and dissociation constants were determined at increasing concentrations of the full length ApoE3 protein (Innovagen) from 0 to 571.4 nM. The following running settings were used: 30 s initial baseline in the experimental media, 120 s loading of the ligand (mAb 1H4) on the biosensors, 30 s new baseline before association (120 s) and dissociation (120 s) steps. A total of 6 runs of 420 s at 2200 rpm and room temperature were conducted to determine the binding parameters of ApoE3. Global fitting and step corrections of the dissociation experiments were performed using the BLItz software (ver. 1.1.0.7). […] KD, Ka and Kd were measured (table 10) and calculated using the BLItz system. Top panel is representative of the association steps, the bottom panel is representative of the dissociation steps of the binding kinetic. The X and Y axes depicts time in second and binding in nM, respectively.

[6] = target: T2, full-length wild type human ApoE3 …; assay: BLI (BLItz), mAb 1H4 on protein A biosensor, run with 71.43 nM ApoE3, global fit
Experimental: as §1

[7] = target: T2, full-length wild type human ApoE3 …; assay: BLI (BLItz), mAb 1H4 on protein A biosensor, run with 142.9 nM ApoE3, global fit
Experimental: as §1

mouse recombinant ApoE = target: T5, mouse recombinant ApoE (mouse, UniProt P08226 19-311); assay: ELISA, His-tagged target on anti-His plate, serial antibody dilutions, anti-mouse HRP, O.D. 450 nm
T5 construct: also called mouse recombinant ApoE3; msApoE
T5 sequence (looked up): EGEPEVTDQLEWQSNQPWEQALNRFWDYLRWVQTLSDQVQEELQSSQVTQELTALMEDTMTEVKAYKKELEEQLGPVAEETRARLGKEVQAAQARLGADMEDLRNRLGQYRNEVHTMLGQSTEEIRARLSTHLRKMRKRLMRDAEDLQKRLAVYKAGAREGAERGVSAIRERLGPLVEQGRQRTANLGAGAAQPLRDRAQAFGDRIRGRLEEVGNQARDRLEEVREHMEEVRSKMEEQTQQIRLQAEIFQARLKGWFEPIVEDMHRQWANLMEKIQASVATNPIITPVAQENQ
Experimental: To test selectivity of the antibodies for huApoE3WT, huApoE3ch or msApoE, anti-his ELISA coated plates were incubated with 0.0025 μg/μL of the target protein for 2 h at R.T. under gentle shaking. Wells were washed 5 times with 1X wash buffer (R&D) and subsequently incubated with serial dilutions of Innovagen antibody of interest over night at 4° C. on a shaker (100 μL/well). The following day, wells were washed 5 times with sample buffer and incubated for 45 minutes using Rabbit-anti-mouse HRP-conjugated buffer (1:10,000; 100 μL/well; Abcam). After 5 more washes, plates were incubated with chromogen A+B 1:1 to initiate the colorimetric reaction (100 μL/well). The reaction was stopped with 2 N […] (R&D stop solution., 50 μL/well) and absorbance detected at 450 nm spectroscopically.

[8] = target: T2, full-length wild type human ApoE3 …; assay: BLI (BLItz), mAb 1H4 on protein A biosensor, run with 571.4 nM ApoE3, global fit
Experimental: as §1

[9] = target: T2, full-length wild type human ApoE3 …; assay: BLI (BLItz), mAb 1H4 on protein A biosensor, run with 35.71 nM ApoE3, global fit
Experimental: as §1

[10] = target: T2, full-length wild type human ApoE3 …; assay: BLI (BLItz), mAb 1H4 on protein A biosensor, run with 285.7 nM ApoE3, global fit; columns shifted: value stands under 'Ka Error' but is the kd (0.04142/2900000 = 14.28 nM)
Experimental: as §1

[11] = target: T2, full-length wild type human ApoE3 …; assay: BLI (BLItz), mAb 1H4 on protein A biosensor, run with 71.43 nM ApoE3, global fit; columns shifted: value stands under 'Ka Error' but is the kd (0.04142/2900000 = 14.28 nM)
Experimental: as §1

[12] = target: T1, full-length ApoE3ch (ApoE3 Christchurch …); assay: ELISA of 1H4-2 subclone serum on ApoE3ch full length protein, O.D. 450 nm against dilution factor
[13] = target: T2, full-length wild type human ApoE3 …; assay: BLI (BLItz), mAb 1H4 on protein A biosensor, run with 571.4 nM ApoE3, global fit; columns shifted: value stands under 'Ka Error' but is the kd (0.04142/2900000 = 14.28 nM)
Experimental: as §1

[14] = target: T3, ApoEch peptide KLH-CTEELRVSLASHLRK-CONH2; assay: ELISA of 1H4-2 subclone serum on ApoE3ch peptide, O.D. 450 nm against dilution factor
[15] = target: T2, full-length wild type human ApoE3 …; assay: BLI (BLItz), mAb 1H4 on protein A biosensor, run with 35.71 nM ApoE3, global fit; columns shifted: value stands under 'Ka Error' but is the kd (0.04142/2900000 = 14.28 nM)
Experimental: as §1

[16] = target: T2, full-length wild type human ApoE3 …; assay: BLI (BLItz), mAb 1H4 on protein A biosensor, run with 142.9 nM ApoE3, global fit; columns shifted: value stands under 'Ka Error' but is the kd (0.04142/2900000 = 14.28 nM)
Experimental: as §1

T2 sequence (P02649 19-317): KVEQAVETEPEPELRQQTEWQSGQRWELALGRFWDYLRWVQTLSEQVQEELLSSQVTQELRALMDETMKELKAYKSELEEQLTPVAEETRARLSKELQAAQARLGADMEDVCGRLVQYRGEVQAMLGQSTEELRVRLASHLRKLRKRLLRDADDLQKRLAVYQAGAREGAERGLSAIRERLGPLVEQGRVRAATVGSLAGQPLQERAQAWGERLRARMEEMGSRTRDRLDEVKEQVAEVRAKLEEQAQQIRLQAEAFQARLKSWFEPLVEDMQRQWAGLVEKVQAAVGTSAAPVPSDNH
T1 sequence (P02649 19-317 R154S): as the sequence (P02649 19-317) above, with R136S counted along it

absorbance (ELISA) [1]: 0.056 absorbance
absorbance (ELISA) [2]: 2.11 absorbance
absorbance (ELISA) [3]: 0.07 absorbance
absorbance (ELISA) [4]: 2.58 absorbance
Kd [5]: 14.3 nM
kon [5]: 2.9e+06 M⁻¹ s⁻¹
Kd [6]: 14.3 nM
kon [6]: 2.9e+06 M⁻¹ s⁻¹
Kd [7]: 14.3 nM
kon [7]: 2.9e+06 M⁻¹ s⁻¹
binding result (mouse recombinant ApoE): no binding (tested: 1:500 dilution)
Kd [8]: 14.3 nM
kon [8]: 2.9e+06 M⁻¹ s⁻¹
Kd [9]: 14.3 nM
kon [9]: 2.9e+06 M⁻¹ s⁻¹
koff [10]: 0.0414 s⁻¹
koff [11]: 0.0414 s⁻¹
binding result [12]: no binding (tested: 1:10 dilution)
koff [13]: 0.0414 s⁻¹
binding result [14]: no binding (tested: 1:10 dilution)
koff [15]: 0.0414 s⁻¹
koff [16]: 0.0414 s⁻¹
B1: antibody 1H4-2 (antibody, V domains shown)
VH: EVKLVESGGGVVQPGGSLKLSCAASGFTFSSYTMSWVRQTPEKRLEWVAKIRNGGGITYYLDTLKGRFTISRDNAKNTLYLQMSSLKSEDTAIYFCARHYYGSEDYFDYWGQGTTLTVSS
VL: DNVLTQSPASLAVSLGQRATISCKASQSVDYDGDSYMNWYQQKPGQPPKVFIYAASNLESGIPARFSGSGSGTDFTLNIHPVEEEDAATYYCQQSNEDPWTFGGGTKLEIK
notes: also called mAb 1H4; monoclonal 1H4 antibody
